Ends that are not written are not given here.
Tests used:
Format in all cases: cell-based
S. Typhimurium PhoPQ [1] = biological target: T1, S. Typhimurium PhoPQ (Salmonella typhimurium, UniProt P0DM80); experiment: SLAY-TCS sort-seq screen of KB1 human AMP library; settings: for sort-seq fold activation of PhoPQ relative to no-peptide control: KB1 library, 500 μM IPTG
T1 construct: expressed in transfected cells; host or cells: E. coli BW30007 (lacks E. coli phoPQ) with the cassette integrated in the genome = strain KB1
Description: PhoQ senses diverse human AMPs: To characterize the response of PhoQ to most human AMPs, 133 human AMPs in the Antimicrobial Peptide Database (APD3) were first identified). From this set, 16 (12%) were excluded exceeding 104 amino acids in length due to size restrictions of commercial oligonucleotide synthesis. The remaining set of 117 AMPs vary in charge, length, hydrophobicity, and secondary structure, and comprise 11 clusters of high sequence similarity. These clusters include families of mature AMPs processed from a single precursor peptide (e.g. products of cathelicidin, human defensin 5, and β-amyloid) and peptides with high sequence similarity that are produced from distinct genes (e.g. CXCL1, CXCL2, and CXCL3).
This plasmid library was transformed into KB1. Using Illumina NGS, it was validated that sequences encoding all 117 human AMPs, along with no-peptide controls, are present in the KB1 human AMP library. Variants of human AMPs were also identified that likely resulted from errors in oligo synthesis or plasmid assembly. As expected, these variants generally had lower representation in the library than the human AMPs.
Next, sort-seq was utilized to characterize the effect of each peptide on PhoPQ activity. First, the KB1 human AMP library was grown in the presence of 500 μM IPTG, which induces sufficient expression of positive control AMPs to strongly activate PhoPQ (FIG. 25D). Then, FACS was used to sort these bacteria into eight logarithmically-spaced mNG fluorescence bins (FIG. 26B). The bins were designed to span the fluorescence distributions of negative (no peptide) and positive (C18G) PhoQ activity control strains measured on the same day. […] Next, Illumina NGS was used to sequence the peptide-encoding DNA regions from bacteria in each bin and estimated the mean mNG fluorescence level of each strain using the relative abundances of peptide-encoding sequences across fluorescence bins. These estimated fluorescence values were divided by the estimated mean fluorescence of the no-peptide control to calculate the fold activation of PhoPQ in response to each peptide in the library.

KB1 PhoQ H277A = biological target: T2, KB1 PhoQ H277A (Salmonella typhimurium, UniProt P0DM80, H277A); experiment: Negative control strains (S. Typhimurium lacking phoQ; KB1 PhoQ H277A)
T2 construct: expressed in transfected cells; host or cells: E. coli KB1 derivative (BW30007 background)
T2 sequence (P0DM80 1-487 H277A): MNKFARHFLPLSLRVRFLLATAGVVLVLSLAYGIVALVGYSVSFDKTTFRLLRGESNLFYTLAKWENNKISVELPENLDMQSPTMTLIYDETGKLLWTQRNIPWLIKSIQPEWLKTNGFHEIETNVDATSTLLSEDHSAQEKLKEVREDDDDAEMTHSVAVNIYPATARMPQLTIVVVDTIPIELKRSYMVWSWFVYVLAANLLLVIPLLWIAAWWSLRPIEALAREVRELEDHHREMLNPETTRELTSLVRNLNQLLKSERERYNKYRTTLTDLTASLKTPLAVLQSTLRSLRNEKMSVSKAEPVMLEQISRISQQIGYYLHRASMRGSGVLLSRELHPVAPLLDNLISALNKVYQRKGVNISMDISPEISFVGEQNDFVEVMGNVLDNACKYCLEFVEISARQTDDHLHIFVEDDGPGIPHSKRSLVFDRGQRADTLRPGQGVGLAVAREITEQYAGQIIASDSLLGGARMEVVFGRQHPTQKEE
Description: This plasmid was transformed into both S. Typhimurium and KB1 to measure PhoPQ activation by the positive control AMP LL-37. […] LL-37 response was also measured in two negative control strains: an S. Typhimurium strain lacking phoQ and a KB1 derivative in which the catalytic histidine of PhoQ was mutated to an alanine (KB1 PhoQ H277A).

S. Typhimurium PhoPQ [2] = biological target: T1, S. Typhimurium PhoPQ; experiment: SLAY-TCS: surface-displayed peptides in KB1, single strains, flow cytometry; settings: KB1, IPTG-induced display
Description: In SLAY, peptides of interest are expressed at the C-terminus of a fusion protein consisting of the Lpp signal peptide, an OmpA transmembrane domain, and a flexible tether. […] In addition to PvirK-mNG, each of these plasmids encodes a SLAY fusion protein under the control of an isopropyl-β-D-thiogalactoside (IPTG)-inducible promoter (Ptac) (FIG. 25). Ptac is tightly repressed, to avoid potential toxicity arising from leaky AMP expression in the absence of inducer. […] Finally, a no-peptide control plasmid encoding a stop codon was constructed instead of a peptide following the OmpA transmembrane domain.

T1 sequence (P0DM80 whole entry): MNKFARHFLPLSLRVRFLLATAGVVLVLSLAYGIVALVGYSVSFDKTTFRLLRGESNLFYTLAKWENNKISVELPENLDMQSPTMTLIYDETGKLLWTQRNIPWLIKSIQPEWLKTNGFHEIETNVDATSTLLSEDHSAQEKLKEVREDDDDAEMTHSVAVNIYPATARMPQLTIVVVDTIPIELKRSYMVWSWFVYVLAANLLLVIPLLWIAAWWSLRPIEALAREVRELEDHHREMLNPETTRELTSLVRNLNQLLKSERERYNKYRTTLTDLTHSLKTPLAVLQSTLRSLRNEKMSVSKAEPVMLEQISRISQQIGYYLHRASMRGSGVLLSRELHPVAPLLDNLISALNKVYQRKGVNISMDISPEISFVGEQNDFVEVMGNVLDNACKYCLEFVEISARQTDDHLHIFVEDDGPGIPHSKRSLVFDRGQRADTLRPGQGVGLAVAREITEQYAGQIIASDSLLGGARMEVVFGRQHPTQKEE

| Substance | human AMPs sensed by PhoPQ (S. Typhimurium PhoPQ [1]) | sort-seq fold activation of PhoPQ relative to no-peptide control (S. Typhimurium PhoPQ [1]) | PhoPQ activation by surface-displayed peptide (S. Typhimurium PhoPQ [2]) | further results |
| --- | --- | --- | --- | --- |
| NPY: neuropeptide Y | senses |  |  |  |
| CCL20 | senses |  |  |  |
| LL-37 |  | 5.2 fold |  | LL-37 response in negative control strains (KB1 PhoQ H277A; S. Typhimurium lacking phoQ and KB1 PhoQ H277A): Neither negative control strain responds |
| protegrin-1: positive control AMP containing disulfide bonds (RGGRLCYCRRRFCVCVGR; disulfide (positions not given here); ends not checked; also: disulfide bonds, pairing not given here; UniProt P32194 131-148, looked up) |  |  | activates PhoPQ | PhoPQ activation by surface-displayed AMPs in PhoQ H277A strain (KB1 PhoQ H277A; KB1 PhoQ H277A): slight increase in mNG fluorescence |
| hBD3: human β-defensin 3 (GIINTLQKYYCRVRGGRCAVLSCLPKEEQIGKCSTRGRKCCRRKK; ends and bridges not checked; cysteine pairing not given here; UniProt P81534 23-67, looked up) | senses |  |  |  |
| HNP-1: human defensin, negative control peptide |  | does not activate mNG expression | do not activate PhoPQ |  |

From US20240189458A1, “METHODS FOR IN VIVO DELIVERY OF MICROBES TO HUMAN MICROENVIRONMENTS” (priority 2021, published 2024)
